Test results from publication PMC3367207 (Nucleic Acids Research, 2012).

Target: the molecule itself
Assay: FRET or BRET

B1: FokI restriction endonuclease (enzyme, UniProt P14870 1-579, looked up)
chain: MVSKIRTFGWVQNPGKFENLKRVVQVFDRNSKVHNEVKNIKIPTLVKESKIQKELVAIMNQHDLIYTYKELVGTGTSIRSEAPCDAIIQATIADQGNKKGYIDNWSSDGFLRWAHALGFIEYINKSDSFVITDVGLAYSKSADGSAIEKEILIEAISSYPPAIRILTLLEDGQHLTKFDLGKNLGFSGESGFTSLPEGILLDTLANAMPKDKGEIRNNWEGSSDKYARMIGGWLDKLGLVKQGKKEFIIPTLGKPDNKEFISHAFKITGEGLKVLRRAKGSTKFTRVPKRVYWEMLATNLTDKEYVRTRRALILEILIKAGSLKIEQIQDNLKKLGFDEVIETIENDIKGLINTGIFIEIKGRFYQLKDHILQFVIPNRGVTKQLVKSELEEKKSELRHKLKYVPHEYIELIEIARNSTQDRILEMKVMEFFMKVYGYRGKHLGGSRKPDGAIYTVGSPIDYGVIVDTKAYSGGYNLPIGQADEMQRYVEENQTRNKHINPNEWWKVYPSSVTEFKFLFVSGHFKGNYKAQLTRLNHITNCNGAVLSVEELLIGGEMIKAGTLTLEEVRRKFNNGEINF
- binding result: binds
